# In the supplement of paper PMC9170038:
# Experiments:
# MS2 coat protein = assay: apparent KD of MS2 coat protein; higher = weaker reporter binding; details: Eterna round: R107
# Description: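 RNA-MaP round R107: designed RNA switches with theophylline, tryptophan, arginine or FMN aptamers are transcribed on-chip within common flanks. They are titrated with SNAP-549-labelled MS2 coat protein in RNA-MaP buffer (100 mM Tris pH 7.5, 80 mM KCl, 4 mM MgCl2), without ligand or with the indicated ligand. Median apparent KD per design.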
# [1] = tested on: K4 kissing-loop RNA reporter; assay: apparent KD of K4 kissing-loop reporter; higher = weaker reporter binding; details: Eterna round: R107;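 also: bound reporter read as fluorescence of individual clusters on recovered sequencing chips by microscopy, with normalized cluster intensities fitted with a binding model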
# Description: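 RNA-MaP round R107: designed RNA switches with theophylline, tryptophan, arginine or FMN aptamers are transcribed on-chip within common flanks. They are titrated with a labelled K4 kissing-loop RNA reporter in RNA-MaP buffer (100 mM Tris pH 7.5, 80 mM KCl, 4 mM MgCl2), without ligand or with the indicated ligand. Median apparent KD per design.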
# [2] = input ligand: theophylline 20 uM
# [3] = input ligand: theophylline 2 mM
# [4] = input ligand: tryptophan 2.4 mM
Sequence,apparent KD of MS2 coat protein (MS2 coat protein; input ligand: arginine 13.2 mM) [nM],apparent KD of MS2 coat protein (MS2 coat protein; input ligand: none) [nM],apparent KD of MS2 coat protein (MS2 coat protein; [2]) [nM],apparent KD of MS2 coat protein (MS2 coat protein; [3]) [nM],apparent KD of MS2 coat protein (MS2 coat protein; [4]) [nM],apparent KD of K4 kissing-loop reporter ([1]; input ligand: FMN 200 uM) [nM],apparent KD of K4 kissing-loop reporter ([1]; input ligand: arginine 13.2 mM) [nM],apparent KD of K4 kissing-loop reporter ([1]; input ligand: none) [nM],"apparent KD of K4 kissing-loop reporter [1, 2] [nM]","apparent KD of K4 kissing-loop reporter [1, 4] [nM]"
AAAACAAACUCGGCCGCCACUCCCUCCCACCCAAGGACAUGAGGAUCACCCAUGUGGCAAAGCCCGAGGACCGGGAGAAACAAAA [Same State - Trytophan B],18.1,22.2,28.3,26.4,20.3,,,,,
AAAAGAGGUGGAAGGAGCGGGAGACAUGAGGAUCACCCAUGUGAAGUUACGAAAGGUUCAGCCCAGGUAGGUCGCCAUGUCGAAA [eefemullin],1.33,17.5,55.1,58.8,33.7,,,,,
AAAAUAAUGGCGGCCGCCACUAACUCAUAUACAUCAUGUACAUGAGGAUCACCCAUGUAGGUGUAUAGGACCGGGCCAUAAUUAA [39MS split4],18.3,,22.2,18.8,,,,,,
AAAAUCCUACCUGAGGAUCACCCGGGUGAAGGAGCGCCCGAAAGGGCAGGUAGGUCGCACCUGAGGAUCACCCUGGUAAACCUAA [ArgEX 23 #DoubleMS2 #OpenEnded],103,172,183,234,154,,,,,
AAACAUGAGGAUCACCCAUGUAAUUCAGAAGGAGCGUCAUUAUUGACAGGUAGGUCGCUGAUAAAAUUUCUAUACAUCAUGUAUA [JR_SSArginiA_Sub013],11.9,12.4,15.7,13,13.3,,,,,
AAACAUUGCUGCGAUACCAGACAUGAGGAUCACCCAUGUACCAAGAAAACGUACAUAAAUGUCCCUUGGCAGCGCAGCAAUGAAA [MAT - Exclusion Theophlline B - Mod of Eli - D27],216,,514,,651,,,,,
AAACGACAUGAGGAUCACCCAUGUGCCGAUACCAGCCGGAUAUACGGCCCUUGGCAGCGGAGUAAAUCCGGAGGACAAUGGGUAA [Same State Theophylline A GF6],37.7,57,49.5,92.4,39.5,,,,,
AAAGAACAUGAGGAUCACCCAUGUACCGAAGGAGCGGCGAAGAAGCCAGGUAGGUCGCGGAACAUGAAGCGAUUAAGAAUUAAUU,21.5,19.3,25.7,21,20.4,,,,,
AAAGAUCGGAAACGAUCGGCGGCUUGGGCGCGAGGACCGGUACGGCCGCCACUCGGGCAACAUGAGGAUCACCCAUGUUCCUCAU [ETA NP+V+V2 #17],75.5,146,245,180,189,,,,,
AAAUAAAUACAUGAGGAUCACCCAUGUGAAGGAGCGCCCGUUAGGGCAGGUAGGUCGCACAUGAACUCCAAAGUGCAAAAGCACA [ArgEX 17 #OpenEnded],35.7,21.5,29.7,27.4,25.4,,,,,
AAAUAAUAUUAAUUAAUUAUAUUAUUCUGACGAGGACCGGUACGGCCGCCACUCGGCCCAUGGUACAUGAGGAUCACCCAUGUCU [Same State - Tryptophan A],17,,17.2,18.9,,,,,,
AACAUGAGGAUCACCCAUGUCCCAUGUGAACGAGGACCGGUACGGCCGCCACUCGACCGAGGCGGCACAUGAGGAUCACCCGCAU [whbob_SS_trypto A_2s14],161,,481,682,,,,,,
AACAUGAGGAUCACCCAUGUCCCUCCCUCCCGAGGACCGGUACGGCCGCCACUCGCCCUCCCUCCCUAAGAAAGAAAGAAGAAGA [Same State - Trypopjan A],54,37.9,38,38.5,32.1,,,,,
AACCACGAGUCGGCCGCCACUUGCAACUAGUUUCAGAAGCAGAAACAUGAGGAUCACCCAUGUCGAAGGACCGGGACUUUACAGG [theeternabot_sameState_MS2_Trp_B_18],21.6,,23.2,17.4,,,,,,
AACCGAGGCUAUCCUCUACGACUAUGUGAUACCAGAAUAAUUUUAUUCCCUUGGCAGCAUGACAUGAGGAUCACCCAUGUCUCUU [SSTheo A #9],24,,38.8,,34,,,,,
AACCGAGGCUAUCCUCUCCGCCUAUGUGAUACCAGAAUAAUUUUAUUCCCUUGGCAGCAUGACAUGAGGAUCACCCAUGUCUCUU [SSTheo A #11],15.2,,19.4,,17.3,,,,,
AAGAAGUUUUGAUUUUUAUGAAGUAGUGAUACCAGUCAAGAAAGAGACCCUUGGCAGCGCAACAUGAGGAUCACCCAUGUAAGAA [A random design],26.2,,26.7,,24.2,,,,,
AAGCGGGCGACGGCCGCCACUUGCCUGUAAUUAGAGAAGGCACAUGAGGAUCACCCAUGUCCCGCAAGGACCGGGUUGCCUCACU [Ditiraorce],93.6,,484,580,,,,,,

Sequence,apparent KD of MS2 coat protein (MS2 coat protein; input ligand: arginine 13.2 mM) [nM],apparent KD of MS2 coat protein (MS2 coat protein; input ligand: none) [nM],apparent KD of MS2 coat protein (MS2 coat protein; [2]) [nM],apparent KD of MS2 coat protein (MS2 coat protein; [3]) [nM],apparent KD of MS2 coat protein (MS2 coat protein; [4]) [nM],apparent KD of K4 kissing-loop reporter ([1]; input ligand: FMN 200 uM) [nM],apparent KD of K4 kissing-loop reporter ([1]; input ligand: arginine 13.2 mM) [nM],apparent KD of K4 kissing-loop reporter ([1]; input ligand: none) [nM],"apparent KD of K4 kissing-loop reporter [1, 2] [nM]","apparent KD of K4 kissing-loop reporter [1, 4] [nM]"
AAGGAACAUGAGGAUCACCCAUGUACCGAAGGAGCGGCAGAGAUGCCAGGUAGGUCGCGGUACUUGCCGGGUCAUUCAUGCAGAG [Arraiste],39.1,26.3,30.6,32.8,23.9,,,,,
AAGGUGAUCCCAGAUACCAGCCUAACAUGAGGAUCACCCAUGUUUGGGACGAAAGUCCCAGGCCCUUGGCAGCUGGGUUGCCAAG [SSTheo B #17],48.8,,131,,185,,,,,
AAUAAACAUGAGGAUCACCCAUGUAUGGAAGGAGCGGUGAAUAAACCAGGUAGGUCGCCAGUGUGAGGGUCAUCUAUGUAAUCAA [Exclusion - Arginine A (Freestyle 3)],29.1,42.1,58.3,49.3,49.5,,,,,
AAUAACAUGAGGAUCACCCAUGUAAAAGAUACCAGAUGCAUGAUGAUCCCUUGGCAGCUUAAACGCGAUUGAUUACAAUCGCGAA [Mat - Same State Theophlline A - Mod of Eli - D10],40.9,,71.9,,21.2,,,,,
AAUAACAUGAGGAUCACCCAUGUAAAAGAUACCAGAUGCAUGAUGAUCCCUUGGCAGCUUAACGCUGAUUGGAAACAAUCAGCGA [Mat - Same State Theophlline A - Mod of Eli - D9],175,,62.1,,14.7,,,,,
AAUAAGCAGCUGCCUUCCUCAUGAGCAGAUACCAGCUAGGAAACUAGCCCUUGGCAGCUGCAACAUGAGGAUCACCCAUGUAAUA [(T)'-(M)'-(T1)-(T2)-(M1)-(M2)_Design4],22.4,,81.2,,43.7,,,,,
AAUAAUAACAUGGGUGCACGAGUGGCAUAACGAGGACCGGUACGGCCGCCACUCGAACAUGAGGAUCACCCAUGUAGCCACUCGA [M'-T'-T-MS2-T'' - Design 4],55.1,102,102,132,20.5,,,,,
AAUAAUAAGGCGGCCGCCACUAAACAUGAGGAUCACCCAUGUCUCGAGCGCUUGCAUUUGGGAAGUAGGACCGGGCCAAUAAUAA [Exclusion - Tryptophan B (Freestyle 4)],14.5,21.4,28.8,22.6,19.4,,,,,
AAUAAUAUGAGGAUCACCCAUAUAAAAGAUACCAGAGUGAUGAUCCUCCCUUGGCAGCUUAACGCUGAUUGAUUACAAUCAGCGA,68.7,47.5,85,234,25.5,,,,,
UUUAGAUGAAGUGAUACCAGACUUGAAAGUGAUGUUUUCCAAUAAUUUAAAUUAUUAGCUGUCCCUUGGCAGCACAGUUUAUUUA [JR_ExcTheophyB_Sub008],,,,,,229,326,282,346,193
UUUCGGUUCUGAGGAUAUUCGGACAAAUAUAGUGAUGUUGUAUAAGGAGGAGGGUGUUGGCAGUGAGGAGAAGGCAGAAGAGGAU [ExFMNB.T],,,,,,1000,677,946,524,622
UUUCGUCUCUGAGGAUAUCAGAGGAGAGUGAUGUUCUCCCAUAGCCCAGUGAUGUUGGAUGCUAUCUGAGAAGGCAGUGGGCGAA [Same State FMN B GF 13],,,,,,143,141,164,144,155
UUUCUACCGGGAAGGAGCGUGAAUGAUAAUGGAUAUAGUGAUGUUAUAUAUAAGAACGAAUCGCAGGUAGGUCGCCCGGAUGACU [SSArgB.S],,,,,,311,333,352,397,310
UUUGUAUCGGGAAGGAGCGUGAAUGAUAAUGAAUAUAGUGAUGUUAUAUAUAAGAACGAAUCACAGGUAGGUCGCCCGGAUGAGU [SSArgB.N],,,,,,548,387,486,548,460
UUUUUAAUCGCAGAUACCAGUCCAGAAUGAAUACUAUAGUGAUGUUAUAAUAAAGGGAAGGACCCUUGGCAGCUGUAAUAUAUUU [AstrosSsTheB#5],,,,,,386,315,416,318,298
UUUUUAUAAGAGGAUACCAGUACAAAUAAAGUACAUUAAUAGUAGAGUGAUGUUCUAAAGUACCCUUGGCAGCUUAGAUUAAGUU [ExTheophylB.D],,,,,,158,268,172,255,117
UUUUUCGCGUUUGAUACCAGCAGAGUUGUUCGUGUCUGGAACAUGAGUGAUGUUCAUGUCUGCCCUUGGCAGCAAACGGGAGAAG [KL-XTheo-B13],,,,,,127,112,103,87.8,124
